Results on 1 molecule are retold here after patent US12539335B2, “Tricyclic polypeptide conjugated drug and use thereof” (CONJUSTAR (ZHUHAI) BIOLOGICS CO., LTD., priority 2021, dated 2026).

Where a name gives a salt, the structure may show the parent alone. Starred links: 1 amine or outer side, 2 acyl side, 3 side chain; linkers in the order of their positions; H or OH if unused. Positions of bridges follow the written chain, without caps; N, C: chain ends. Non-standard residues stand in square brackets, D forms with d. Residues, ends and D or L forms follow the SMILES beside them. Chains are numbered I, II in the order given. *: point of attachment. TATA = O=C(CC[*:1])N1CN(C(=O)CC[*:2])CN(C(=O)CC[*:3])C1; Dolaproine = CO[C@@H]([C@@H]1CCCN1)[C@@H](C)C(=O)O; Dil = CC[C@H](C)[C@H](NC)[C@@H](CC(=O)O)OC; 1Nal = N[C@@H](Cc1cccc2ccccc12)C(=O)O; X2 = O=C(CCCC(=O)[*:2])NCCC(=O)[*:1]; PABC = O=C(OCc1ccc(N[*:1])cc1)[*:2]; X1 = C[C@@H](N*)[C@@H](O)c1ccccc1; Hyp = O=C(O)[C@@H]1C[C@@H](O)CN1; hArg = N=C(N)NCCCC[C@H](N)C(=O)O; Cit = NC(=O)NCCC[C@H](N)C(=O)O; Pen = CC(C)(S)[C@H](N)C(=O)O; NMeV = CN[C@H](C(=O)O)C(C)C; Sar = CNCC(=O)O

One data set deals with NCI-H292 cells. Nature of the data set: In vitro anti-proliferative activity, CellTiter-Glo, NCI-H292. The following applies: NCI-H292, 72 h. It is filed as cell-based, Human. How it is done: Test Example 2: In Vitro Anti-Proliferative Activity of the Compounds of the Present Invention on Nci-H292 and Mda-Mb-468 Cells
To investigate the effect of the compounds of the present invention on inhibiting cell proliferation by detecting the effect of the compounds on cell activity in vitro in tumor cell lines MDA-MB-468 and NCI-H292.
The tumor cell lines were cultured in a 37° C., no CO2 incubator and a 37° C., 5% CO2 incubator according to the culture conditions shown in Table 8, respectively. The cells were periodically passaged, and cells in a logarithmic growth phase were taken for plating.
Cells in a logarithmic growth phase were harvested and centrifuged at 1000 rpm for 3 min at room temperature. The supernatant was discarded, and the cells were resuspended in 5 mL of a culture medium. Then, 20 μL of the cell suspension was pipetted and mixed with trypan blue at 1:1 for staining for 3 min to detect cell viability and to count viable cells. The cell density was adjusted to 3000 cells/well. Then, 90 μL of the cell suspension was added to each culture plate well, and a cell-free culture medium was added to blank control wells. The culture plate was incubated overnight in a 37° C., no CO2, and 100% relative humidity incubator and a 37° C., 5% CO2, and 100% relative humidity incubator, respectively.
Preparation of a 400× compound stock plate: The compound to be tested was gradient diluted with DMSO from the highest to the lowest concentration.
Preparation of a 10× compound working solution: 78 μL of a cell culture medium was added to a V-bottomed 96-well plate, and 2 μL of the compound solution of each concentration was pipetted from the 400× compound stock plate into the cell culture medium in the 96-well plate. Then, 2 μL of DMSO was added to vehicle control and blank control. […]
The detection was performed according to the instructions of the Promega CellTiter-Glo Luminescent Cell Viability Assay kit (Promega-G7573). The luminescence signal was detected on the En Vision® Multi-mode Plate Reader (En Vision 2104-10). […]
(In general: Cellular ATP, detected with luciferase, serves as a proxy for viable cell number.)

A short description of data set [1]: Pharmacokinetic analysis in rat plasma. In kind it is in vivo, SD rats. Conditions: Sprague-Dawley (SD), rat, SD rats, single IV 3 mg/kg, plasma. The protocol:
Test Example 5: Pharmacokinetic Analysis of the Compounds of the Present Invention in Rat Plasma
To test the pharmacokinetics of the compounds of the present invention in SD rats.
The pharmacokinetic characteristics of the compound after intravenous injection were tested in rats according to a standard protocol. The compound to be tested was formulated into a clear solution using 25 mM L-histidine (pH=7) in 10% sucrose as a vehicle. Two rats were given a single intravenous injection of 3 mg/kg of the compound to be tested. Whole blood was collected at time points of 0.083, 0.25, 0.5, 1, 2, 4, 8, and 24 hours after administration to get plasma. The concentration of the compound of the present invention and the concentration of its potential metabolite MMAE were analyzed by the LC-MS/MS method, and the pharmacokinetic parameters were calculated by Phoenix WinNonlin software.

Data set [2] is described as follows: Metabolic stability in hepatocytes, CD-1 mice. In kind it is in vitro ADME. Conditions: mouse, hepatocytes (cryopreserved, suspension), CD-1 mice hepatocytes, 0.5×10^6 cells/mL. How it is done:
(§1) Test Example 7: Metabolic Stability of the Compounds of the Present Invention in Hepatocytes from Mice, Rats, Cynomolgus Macaques, and Humans
(§2) To investigate the metabolic stability of the compounds of the present invention in hepatocytes from mice, rats, Cynomolgus macaques, and humans.
(§3) Incubations were performed in 96-well plates using an external extraction method. Several 96-well sample precipitation plates, designated T0, T15, T30, T60, T90, TO-MC, T90-MC, and blank matrix, were prepared, respectively. The recovery culture medium and incubation culture medium were removed in advance and placed in a 37° C. water bath for preheating. […]
(§4) At the end of the incubation at the corresponding time point, the incubation plates were removed, from which 25 μL of a compound mixture with the cells and a control compound mixture with the cells were removed and added to sample plates containing 125 μL of stop buffer, respectively. […] All samples were mixed uniformly and then analyzed by the LC-MS/MS method.
(§5) The concentration of the compound to be tested and the concentration of the control in the sample were semi-quantitatively determined by the liquid chromatography-tandem mass spectrometry (LC-MS/MS) method without a standard curve and quality control sample. […]

Data set [3] is described as follows: Metabolic stability in hepatocytes, humans. In kind it is in vitro ADME. Conditions: human, hepatocytes (cryopreserved, suspension), 0.5×10^6 cells/mL. The protocol:
as §1, §2, §3, §4, §5

`CC[C@H](C)[C@@H]([C@@H](CC(=O)N1CCC[C@H]1[C@H](OC)[C@@H](C)C(=O)N[C@H](C)[C@@H](O)c1ccccc1)OC)N(C)C(=O)[C@@H](NC(=O)[C@H](C(C)C)N(C)C(=O)OCc1ccc(NC(=O)[C@H](CCCNC(N)=O)NC(=O)[C@@H](NC(=O)CCCC(=O)NCCC(=O)N(C)CC(=O)N(C)CC(=O)N(C)CC(=O)N(C)CC(=O)N(C)CC(=O)N(C)CC(=O)N(C)CC(=O)N(C)CC(=O)N(C)CC(=O)N(C)CC(=O)N[C@H]2CCCCNC(=O)C[C@@H](C(=O)N[C@H]3CSCCC(=O)N4CN5CN(C4)C(=O)CCSC(C)(C)[C@H](NC(=O)[C@@H](CC(=O)O)NC(=O)[C@H](Cc4cccc6ccccc46)NC(=O)[C@@H]4CCCN4C3=O)C(=O)N[C@@H](CCSC)C(=O)N[C@@H](CCCCNC(=N)N)C(=O)N[C@@H](CC(=O)O)C(=O)N[C@@H](Cc3c[nH]c4ccccc34)C(=O)N[C@@H](CO)C(=O)N[C@@H]([C@@H](C)O)C(=O)N3CCC[C@H]3C(=O)N3C[C@H](O)C[C@H]3C(=O)N[C@@H](Cc3c[nH]c4ccccc34)C(=O)N[C@H](C(N)=O)CSCCC5=O)NC(=O)CN(C)C2=O)C(C)C)cc1)C(C)C` [Acetate salt of PDC_2] (I: [Sar][Sar][Sar][Sar][Sar][Sar][Sar][Sar][Sar][Sar]K[Sar]DCP[1Nal][dD][Pen]M[hArg]DWSTP[Hyp]WC-NH2 / II: V[Cit][PABC][NMeV]V[Dil][Dolaproine]-X1; lactam I:11-I:13; linker I:14-I:18-I:28 via TATA; linker I:N-II:N via X2): in the data set on NCI-H292 cells, the half-maximal inhibitory concentration (IC50) was 42.1 nM, the Maximum inhibition rate came to 81.32% and the Minimum inhibition rate is 1.55%. In data set [1], the AUC(0-t) was found to be 4.4 µM·h, the C0 came out at 6.9 µM, the clearance was 2.7 mL/min/kg and the half-life is 0.7 h. For the same molecule, the Vd in data set [1] (read-out: Vdss) was 0.1 L/kg. The molecule also returned a half-life at 1 μM in data set [2] of more than 3.61 h. Besides, in data set [2] (read-out: CLint (liver)), the CLint scaled at 1 μM is less than 75.9 mL/min/kg. The molecule also had a half-life at 1 μM in data set [3] of more than 3.61 h. Moreover, in data set [3] (read-out: CLint (liver)), the CLint scaled at 1 μM is less than 17.8 mL/min/kg.

As usually defined, the IC50 is the concentration that gives 50% inhibition. High values mean a need for much substance, low ones inhibition by little substance. The AUC(0-t) is exposure summed from dosing to a finite time, without extrapolation to infinity. Low values mean low exposure, high ones high exposure. For orientation: clearance means the rate of elimination divided by the concentration. One may read the half-life as the time needed for the level to fall by half in the phase considered.
